Patent US20160272683A1 (Novo Nordisk, published 2016)
Numbered stars: 1 amine (or outer) side, 2 acyl side, 3 side chain; on linkers, the order of the positions; unused ones are H or OH. * marks the point of attachment. C20 diacid = O=C(O)CCCCCCCCCCCCCCCCCCC(=O)*; C18 diacid = O=C(O)CCCCCCCCCCCCCCCCC(=O)*; γGlu = O=C(O)[C@H](CCC(=O)[*:2])N[*:1]

T1: human calcitonin receptor (human, UniProt P30988 25-474)
T1 construct: whole, on cells; also called hCT-R; hCTR
T1 sequence (looked up): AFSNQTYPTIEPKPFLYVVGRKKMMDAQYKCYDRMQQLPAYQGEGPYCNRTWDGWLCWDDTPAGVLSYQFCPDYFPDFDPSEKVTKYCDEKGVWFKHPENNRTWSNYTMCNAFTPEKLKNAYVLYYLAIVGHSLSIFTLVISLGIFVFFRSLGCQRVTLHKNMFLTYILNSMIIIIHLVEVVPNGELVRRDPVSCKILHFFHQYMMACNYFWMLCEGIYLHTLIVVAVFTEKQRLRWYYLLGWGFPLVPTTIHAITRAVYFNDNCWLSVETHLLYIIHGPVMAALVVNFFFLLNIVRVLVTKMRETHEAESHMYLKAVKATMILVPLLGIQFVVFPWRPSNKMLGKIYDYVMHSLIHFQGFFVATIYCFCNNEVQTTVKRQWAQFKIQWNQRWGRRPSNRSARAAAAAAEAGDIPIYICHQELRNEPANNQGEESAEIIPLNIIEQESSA


Biological target: T1, human calcitonin receptor
Assay: whole-cell competition vs 125I-human calcitonin (Assay VIIa)
Method in brief: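 BHK tk'ts 13 cells stably co-expressing human calcitonin receptor and a CRE-luciferase reporter, seeded overnight at 37 °C. Bound tracer counted by scintillation after cold HBSS washes and NaOH/SDS lysis; IC₅₀ from one-site competition fit taken as receptor affinity.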

| Binder | IC50 [nM] |
| --- | --- |
| {C18 diacid-γGlu}-ASELSTAVLGRLSAELHELATLPRTETGSGSP-NH2 (SMILES CC(C)C[C@H](NC(=O)[C@H](CCC(=O)O)NC(=O)[C@H](Cc1c[nH]cn1)NC(=O)[C@H](CC(C)C)NC(=O)[C@H](CCC(=O)O)NC(=O)[C@H](C)NC(=O)[C@H](CO)NC(=O)[C@H](CC(C)C)NC(=O)[C@H](CCCNC(=N)N)NC(=O)CNC(=O)[C@H](CC(C)C)NC(=O)[C@@H](NC(=O)[C@H](C)NC(=O)[C@@H](NC(=O)[C@H](CO)NC(=O)[C@H](CC(C)C)NC(=O)[C@H](CCC(=O)O)NC(=O)[C@H](CO)NC(=O)[C@H](C)NC(=O)CC[C@H](NC(=O)CCCCCCCCCCCCCCCCC(=O)O)C(=O)O)[C@@H](C)O)C(C)C)C(=O)N[C@@H](C)C(=O)N[C@H](C(=O)N[C@@H](CC(C)C)C(=O)N1CCC[C@H]1C(=O)N[C@@H](CCCNC(=N)N)C(=O)N[C@H](C(=O)N[C@@H](CCC(=O)O)C(=O)N[C@H](C(=O)NCC(=O)N[C@@H](CO)C(=O)NCC(=O)N[C@@H](CO)C(=O)N1CCC[C@H]1C(N)=O)[C@@H](C)O)[C@@H](C)O)[C@@H](C)O, also called Ex. #76) [[N-terminal(C18 diacid-gGlu), des1, 9V, 30S, 31G]mimylin] | 0.855 |
| {C20 diacid-γGlu}-ASELSTASLGRLSAELHELSTYPRTETGSGSY-NH2 (SMILES CC(C)C[C@H](NC(=O)[C@H](CO)NC(=O)[C@H](C)NC(=O)[C@@H](NC(=O)[C@H](CO)NC(=O)[C@H](CC(C)C)NC(=O)[C@H](CCC(=O)O)NC(=O)[C@H](CO)NC(=O)[C@H](C)NC(=O)CC[C@H](NC(=O)CCCCCCCCCCCCCCCCCCC(=O)O)C(=O)O)[C@@H](C)O)C(=O)NCC(=O)N[C@@H](CCCNC(=N)N)C(=O)N[C@@H](CC(C)C)C(=O)N[C@@H](CO)C(=O)N[C@@H](C)C(=O)N[C@@H](CCC(=O)O)C(=O)N[C@@H](CC(C)C)C(=O)N[C@@H](Cc1c[nH]cn1)C(=O)N[C@@H](CCC(=O)O)C(=O)N[C@@H](CC(C)C)C(=O)N[C@@H](CO)C(=O)N[C@H](C(=O)N[C@@H](Cc1ccc(O)cc1)C(=O)N1CCC[C@H]1C(=O)N[C@@H](CCCNC(=N)N)C(=O)N[C@H](C(=O)N[C@@H](CCC(=O)O)C(=O)N[C@H](C(=O)NCC(=O)N[C@@H](CO)C(=O)NCC(=O)N[C@@H](CO)C(=O)N[C@@H](Cc1ccc(O)cc1)C(N)=O)[C@@H](C)O)[C@@H](C)O)[C@@H](C)O, also called Ex. #100) [[N-terminal(C20 diacid-gGlu), des1, 9S, 21S, 23Y, 30S, 31G, 33Y]mimylin] | 2.82 |
| {C20 diacid-γGlu}-ASELSTATLGRLSAELHELSTYPRTETGSGSP-NH2 (SMILES CC(C)C[C@H](NC(=O)[C@H](CCCNC(=N)N)NC(=O)CNC(=O)[C@H](CC(C)C)NC(=O)[C@@H](NC(=O)[C@H](C)NC(=O)[C@@H](NC(=O)[C@H](CO)NC(=O)[C@H](CC(C)C)NC(=O)[C@H](CCC(=O)O)NC(=O)[C@H](CO)NC(=O)[C@H](C)NC(=O)CC[C@H](NC(=O)CCCCCCCCCCCCCCCCCCC(=O)O)C(=O)O)[C@@H](C)O)[C@@H](C)O)C(=O)N[C@@H](CO)C(=O)N[C@@H](C)C(=O)N[C@@H](CCC(=O)O)C(=O)N[C@@H](CC(C)C)C(=O)N[C@@H](Cc1c[nH]cn1)C(=O)N[C@@H](CCC(=O)O)C(=O)N[C@@H](CC(C)C)C(=O)N[C@@H](CO)C(=O)N[C@H](C(=O)N[C@@H](Cc1ccc(O)cc1)C(=O)N1CCC[C@H]1C(=O)N[C@@H](CCCNC(=N)N)C(=O)N[C@H](C(=O)N[C@@H](CCC(=O)O)C(=O)N[C@H](C(=O)NCC(=O)N[C@@H](CO)C(=O)NCC(=O)N[C@@H](CO)C(=O)N1CCC[C@H]1C(N)=O)[C@@H](C)O)[C@@H](C)O)[C@@H](C)O, also called Ex. #92) [[N-terminal(C20 diacid-gGlu), des1, 9T, 21S, 23Y, 30S, 31G]mimylin] | 2.94 |
| {C20 diacid-γGlu}-ASELSTAALGHLSAELHELATLPHTETGTGTP-NH2 (SMILES CC(C)C[C@H](NC(=O)[C@H](C)NC(=O)[C@H](C)NC(=O)[C@@H](NC(=O)[C@H](CO)NC(=O)[C@H](CC(C)C)NC(=O)[C@H](CCC(=O)O)NC(=O)[C@H](CO)NC(=O)[C@H](C)NC(=O)CC[C@H](NC(=O)CCCCCCCCCCCCCCCCCCC(=O)O)C(=O)O)[C@@H](C)O)C(=O)NCC(=O)N[C@@H](Cc1c[nH]cn1)C(=O)N[C@@H](CC(C)C)C(=O)N[C@@H](CO)C(=O)N[C@@H](C)C(=O)N[C@@H](CCC(=O)O)C(=O)N[C@@H](CC(C)C)C(=O)N[C@@H](Cc1c[nH]cn1)C(=O)N[C@@H](CCC(=O)O)C(=O)N[C@@H](CC(C)C)C(=O)N[C@@H](C)C(=O)N[C@H](C(=O)N[C@@H](CC(C)C)C(=O)N1CCC[C@H]1C(=O)N[C@@H](Cc1c[nH]cn1)C(=O)N[C@H](C(=O)N[C@@H](CCC(=O)O)C(=O)N[C@H](C(=O)NCC(=O)N[C@H](C(=O)NCC(=O)N[C@H](C(=O)N1CCC[C@H]1C(N)=O)[C@@H](C)O)[C@@H](C)O)[C@@H](C)O)[C@@H](C)O)[C@@H](C)O, also called Ex. #93) [[N-terminal(C20 diacid-gGlu), des1, 12H, 25H, 30T, 31G, 32T]mimylin] | 1.03 |
| {C18 diacid-γGlu}-ASELSTAALGRLSAELHELATLPRTETGSGPP-NH2 (SMILES CC(C)C[C@H](NC(=O)[C@H](C)NC(=O)[C@H](C)NC(=O)[C@@H](NC(=O)[C@H](CO)NC(=O)[C@H](CC(C)C)NC(=O)[C@H](CCC(=O)O)NC(=O)[C@H](CO)NC(=O)[C@H](C)NC(=O)CC[C@H](NC(=O)CCCCCCCCCCCCCCCCC(=O)O)C(=O)O)[C@@H](C)O)C(=O)NCC(=O)N[C@@H](CCCNC(=N)N)C(=O)N[C@@H](CC(C)C)C(=O)N[C@@H](CO)C(=O)N[C@@H](C)C(=O)N[C@@H](CCC(=O)O)C(=O)N[C@@H](CC(C)C)C(=O)N[C@@H](Cc1c[nH]cn1)C(=O)N[C@@H](CCC(=O)O)C(=O)N[C@@H](CC(C)C)C(=O)N[C@@H](C)C(=O)N[C@H](C(=O)N[C@@H](CC(C)C)C(=O)N1CCC[C@H]1C(=O)N[C@@H](CCCNC(=N)N)C(=O)N[C@H](C(=O)N[C@@H](CCC(=O)O)C(=O)N[C@H](C(=O)NCC(=O)N[C@@H](CO)C(=O)NCC(=O)N1CCC[C@H]1C(=O)N1CCC[C@H]1C(N)=O)[C@@H](C)O)[C@@H](C)O)[C@@H](C)O, also called Ex. #75) [[N-terminal(C18 diacid-gGlu), des1, 30S, 31G, 32P]mimylin] | 20.5 |

The next binders have a lower IC50 than those just listed; values first:

| IC50 [nM] | Binder |
| --- | --- |
| 0.628 | {C20 diacid-γGlu}-ASELSTAALGKLSAELHELATYPKTETGSGSY-NH2 (SMILES CC(C)C[C@H](NC(=O)[C@H](C)NC(=O)[C@H](C)NC(=O)[C@@H](NC(=O)[C@H](CO)NC(=O)[C@H](CC(C)C)NC(=O)[C@H](CCC(=O)O)NC(=O)[C@H](CO)NC(=O)[C@H](C)NC(=O)CC[C@H](NC(=O)CCCCCCCCCCCCCCCCCCC(=O)O)C(=O)O)[C@@H](C)O)C(=O)NCC(=O)N[C@@H](CCCCN)C(=O)N[C@@H](CC(C)C)C(=O)N[C@@H](CO)C(=O)N[C@@H](C)C(=O)N[C@@H](CCC(=O)O)C(=O)N[C@@H](CC(C)C)C(=O)N[C@@H](Cc1c[nH]cn1)C(=O)N[C@@H](CCC(=O)O)C(=O)N[C@@H](CC(C)C)C(=O)N[C@@H](C)C(=O)N[C@H](C(=O)N[C@@H](Cc1ccc(O)cc1)C(=O)N1CCC[C@H]1C(=O)N[C@@H](CCCCN)C(=O)N[C@H](C(=O)N[C@@H](CCC(=O)O)C(=O)N[C@H](C(=O)NCC(=O)N[C@@H](CO)C(=O)NCC(=O)N[C@@H](CO)C(=O)N[C@@H](Cc1ccc(O)cc1)C(N)=O)[C@@H](C)O)[C@@H](C)O)[C@@H](C)O, also called Ex. #101) [[N-terminal(C20 diacid-gGlu), des1, 12K, 23Y, 25K, 30S, 31G, 33Y]mimylin] |
| 0.541 | {C18 diacid-γGlu}-ASELSTAALGRLSAELHELATLPRTETGSESP-NH2 (SMILES CC(C)C[C@H](NC(=O)[C@H](C)NC(=O)[C@H](C)NC(=O)[C@@H](NC(=O)[C@H](CO)NC(=O)[C@H](CC(C)C)NC(=O)[C@H](CCC(=O)O)NC(=O)[C@H](CO)NC(=O)[C@H](C)NC(=O)CC[C@H](NC(=O)CCCCCCCCCCCCCCCCC(=O)O)C(=O)O)[C@@H](C)O)C(=O)NCC(=O)N[C@@H](CCCNC(=N)N)C(=O)N[C@@H](CC(C)C)C(=O)N[C@@H](CO)C(=O)N[C@@H](C)C(=O)N[C@@H](CCC(=O)O)C(=O)N[C@@H](CC(C)C)C(=O)N[C@@H](Cc1c[nH]cn1)C(=O)N[C@@H](CCC(=O)O)C(=O)N[C@@H](CC(C)C)C(=O)N[C@@H](C)C(=O)N[C@H](C(=O)N[C@@H](CC(C)C)C(=O)N1CCC[C@H]1C(=O)N[C@@H](CCCNC(=N)N)C(=O)N[C@H](C(=O)N[C@@H](CCC(=O)O)C(=O)N[C@H](C(=O)NCC(=O)N[C@@H](CO)C(=O)N[C@@H](CCC(=O)O)C(=O)N[C@@H](CO)C(=O)N1CCC[C@H]1C(N)=O)[C@@H](C)O)[C@@H](C)O)[C@@H](C)O, also called Ex. #23) [[N-terminal(C18 diacid-gGlu), des1, 30S]mimylin] |
| 0.438 | {C20 diacid-γGlu}-ASELSTAALGHLSAELHELATLPRTETGSGSP-NH2 (also called Ex. #72) [[N-terminal(C20 diacid-gGlu), des1, 12H, 30S, 31G]mimylin] |
| 0.385 | {C20 diacid-γGlu}-ASGLSTAALGRLSAELHELATYPRTETGSGSP-NH2 (also called Ex. #79) [[N-terminal(C20 diacid-gGlu), des1, 4G, 23Y, 30S, 31G]mimylin] |
